Laboratory results from paper doi:10.1101/2025.02.10.637573 (bioRxiv, 2025).

B1: Vps74InNb#4-HA (expressed in the cytoplasm of yeast cells) (VHH)
VHH: QVQLQESGGGLVQAGGSLRLSCAASGSISTIVGMGWYRQAPGKERELVAAITGGSSTNYADSVKGRFTISRDNAKNTVYLQMNSLKPEDTAVYYCAAVSYEYRSSPYPETYWGQGTQVTVSS
B2: Vps74InNb#4 (purified from the periplasm of E. coli) (VHH)
VHH: B1 VHH

What was measured:
[1] = target: Vps74 (endogenous, wild-type yeast cells) (Saccharomyces cerevisiae (strain ATCC …, UniProt Q06385)); assay: co-IP
[2] = target: Vps74 (bacterially expressed, as used in the in vitro mixing assays) (yeast, UniProt Q06385); assay: pull-down
[3] = target: Twin-Strep-Vps74 (yeast, UniProt Q06385); assay: pull-down
Chain of Twin-Strep-Vps74 (Q06385 whole entry): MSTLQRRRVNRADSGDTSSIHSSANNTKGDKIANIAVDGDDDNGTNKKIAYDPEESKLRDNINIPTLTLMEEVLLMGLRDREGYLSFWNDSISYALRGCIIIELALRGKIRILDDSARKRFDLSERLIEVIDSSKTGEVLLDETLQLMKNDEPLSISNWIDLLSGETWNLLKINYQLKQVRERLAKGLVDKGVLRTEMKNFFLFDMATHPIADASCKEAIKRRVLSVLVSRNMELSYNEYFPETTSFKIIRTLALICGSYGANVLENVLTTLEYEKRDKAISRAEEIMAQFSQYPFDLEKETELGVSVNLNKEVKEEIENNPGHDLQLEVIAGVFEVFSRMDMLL

Chain of Vps74 (bacterially expressed, as used in the in vitro mixing assays) (Q06385 whole entry): as above
Chain of Vps74 (endogenous, wild-type yeast cells) (Saccharomyces cerevisiae (Q06385 whole entry): as above

Binder | binding result [1] | binding result [2] | binding result [3]
B1 | binds |  | 
B2 |  | binds | binds
